In general, Kd refers to the concentration at which binding is half-saturated. The low end stands for tighter binding, the high end for weaker binding. Broadly, the koff is a measure of how fast the partners let go of each other. A higher koff goes with a short-lived complex. The kon is the second-order rate constant of association. A low value points to slower complex formation.

Where a chain is given by its changes, count along the chain named.

Test [1] deals with T1, 人TSLP (human thymic stromal lymphopoietin) protein (human, UniProt Q969D9 29-159).
T1 construct: also called hTSLP; 人TSLP蛋白
In words: BLI (Fortebio), antibody captured on AMC probe, 100nM TSLP, 1:1 fit. Background: In BLI a coated tip is dipped into the sample, and binding shifts an interference pattern.

Test [2] concerns the target T1, 人TSLP (human thymic stromal …). In words: BLI (Fortebio), method of Example 2, antibody on probe, TSLP in solution.
The target in test [3] is T2, 人IL7 protein (human, UniProt P13232 26-177).
T2 construct: also called 人IL7蛋白
T2 sequence (looked up): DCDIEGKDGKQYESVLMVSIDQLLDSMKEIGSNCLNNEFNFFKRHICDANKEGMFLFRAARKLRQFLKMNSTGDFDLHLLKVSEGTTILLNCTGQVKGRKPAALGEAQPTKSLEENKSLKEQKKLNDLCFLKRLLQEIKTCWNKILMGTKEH
In words: ELISA, IL7 coated at 1ug/ml, HRP-goat anti-human IgG. On the technique in general: ELISA stands for enzyme-linked immunosorbent assay.

Test [4] addresses T1, 人TSLP (human thymic stromal …). In words: BLI (Fortebio), method of Example 2, antibody on probe, TSLP in solution. This is another data set of the same source.

B1: IgG D01 (murine anti-human TSLP monoclonal antibody, clone D01) (antibody, V domains shown)
VH: QVQLQQSGAELVRPGTSVKVSCKASGYAFTNYFIDWVKQRPGQGLEWIGVINPGSGGTNFNEKFKGKATLTADKSSSTAYMQLSSLTSEDSAVYFCARESEVGEGFAYWGQGTLVTVSA
VL: DIQMTQTSSSLSASLGDRVTISCRASQDISNYLNWYQQKPDGTVKLLIYYTSTLHSGVPSRFSGSGSGTDYSLTISNLEQEDIATYFCQQGNTLPYTFGGGTKLEIK
notes: Murine hybridoma IgG, kappa light chain amplified; also called 克隆D01
In test [1], B1 gave a Kd of 2.83 nM, an off-rate (koff) of 0.000225 s⁻¹ and a kon of 79600 M⁻¹ s⁻¹.

B2: xiD01 (anti-human TSLP chimeric antibody) (antibody, human IgG2, V domains shown)
VH: B1 VH
VL: B1 VL
notes: also called 抗人TSLP嵌合抗体蛋白xiD01; not shown: human kappa light chain constant region
B2: in test [2], the Kd stood at 0.985 nM, the koff is 0.000356 s⁻¹ and the kon was found to be 361000 M⁻¹ s⁻¹.

B3: hzD01Hm5Lm4 (humanized, affinity-matured anti-human TSLP antibody) (antibody, human IgG2, V domains shown)
VH: EVQLVQSGAEVKKPGASVKVSCKASGYTFTNYFIDWVRQAPGQGLEWIGVIDAFSGGSNFNEKFKGRVTMTRDTSTSTAYMELSSLRSEDTAVYFCARESEVGEGFAYWGQGTLVTVSS
VL: DIQMTQSPSSLSASVGDRVTISCRASQDISNYLNWYQQKPGKAPKLLIYYTSTLHSGVPSRFSGSGSGTDYTLTISSLQPEDIATYFCQQGNTLPYTFGQGTKLEIK
notes: not shown: human kappa light chain constant region
In the case of B3, the binding result in test [3] is “no binding”. For the same molecule, in test [4], the Kd worked out at 0.0637 nM, the Response was 0.368, the koff came to 3.98e-05 s⁻¹ and the on-rate constant (kon) was 625000 M⁻¹ s⁻¹.

B4: hzD01Lm12 (humanized, affinity-matured anti-human TSLP antibody) (antibody, human IgG2, V domains shown)
VH: B3 VH with D52N, A53P, F54G, S58T
VL: B3 VL with G91F, N92D, T97P
notes: also called hzD01m12; not shown: human kappa light chain constant region
Regarding B4, in test [3], the binding result was “no binding”. For the same molecule, in test [4], the dissociation constant (Kd) was found to be 0.0983 nM, the Response was 0.426, the off-rate constant (koff) turned out to be 6.08e-05 s⁻¹ and the kon came to 619000 M⁻¹ s⁻¹.

Values taken from patent CN113388035A (MABWELL SHANGHAI BIOTECHNOLOGY CO LTD; SHANGHAI PUMING …, dated 2021).
